Laboratory results from article doi:10.1101/2022.01.20.477176v3.

Tests used:
Assay in all cases: purified protein
purified protein [1] = substrate: C=C(C)C(=O)O; details: 150 μM NADH (saturating), pH 6.5
purified protein [2] = substrate: NC(=O)C1=CN([C@@H]2O[C@H](COP(=O)(O)OP(=O)(O)OC[C@H]3O[C@@H](n4cnc5c(N)ncnc54)[C@H](O)[C@@H]3O)[C@@H](O)[C@H]2O)C=CC1; details: 1 mM acrylate, pH 6.5
purified protein [3] = substrate: C=CC(=O)O; details: 150 μM NADH (saturating), pH 6.5

B1: ARD (NADH:acrylate oxidoreductase) (Vibrio harveyi) (protein)
chain: MAQLVDEIVFQSGVKLHNRIVMAPMTIQSAFFDGGVTQEMINYYAARSGGAGAIIVESAFVENYGRAFPGALGIDTDSKIAGLTKLADAIKAKGSKAILQIYHAGRMANPEFNGGHQPISASPVAALRDNAETPLEMTKEQIEEMIERFGDAVNRAILAGFDGVEIHGANTYLIQQFFSPHSNRRNDKWGGNIERRTSFPLAVLAKTKQVAEQHNKSDFIIGYRFSPEEIEQPGIRFDDTMFLLDKLATHGLDYFHFSMGSWLRNSIVTPEDQEPLIDKYRKLQSESVAKVPVIGVGGIAQRKDAENALEQGYDMVSVGKGYLVEPTWANKALNDETCAEFADIAQQEALQIPTPLWEIMDYMIVDSAAEALKHQRIKELQNVPIKFNSGEYTAYGRGHNGDLPVTVTFSEDKILDIVVDSSKESDGIANPAFERIPQQILDGQTLNIDVISGATVSSQAVLDGVSNAVDLAGGNSEALRCKAKEAVAWSSKTIEETVDIVVVGGGGAGLSATLTALDKGKSVVLLEKFPAIGGNTVRTGGWVNAAEPKWQGDFPALPGEKETLMLLAKTAESEFSGEYLEDFKVLKAQLDGYFTDLENGKQYLFDSVELHRIQTYLGGKRTDLNGESIYGQYDLVETLTSRSMESIDWLSEKGIDFDRSVVEIPVGALWRRAHKPKRPKGVEFIDKLSKRIQEQNGRIITDTRATDLMVDNGKVVGIKAVQADGTELILHVNHGVVLASGGFGANTQMIKKYNTYWKEIADDIKTTNSPALVGDGIEIGEKAGAELVGMGFVQLMPVGDPKSGALLTGLIVPPENFVFVNKQGKRFVDECGSRDVLSEAFFDNGGLIYMIADENIRQTAANTSDETIEREIKEGIIIQADTLEELAEKIGVPTQELTNTIAQYNACVDAGQDPEFHKSAFGLKVEKAPFYATPRQPSVHHTMGGLKIDTKARVIGKDGEVIQGLYAAGEVTGGIHAGNRLGGNALIDIFTYGRIAGESASDLV
With B1 as the protein, how does the Km (purified protein [1]) read?
The Km was 690 ± 140 µM.

And the kcat (purified protein [1])?
The kcat was 2.5 ± 0.2 s⁻¹.

And the Km (purified protein [2])?
The Km was 14 ± 1 µM.

And the Km (purified protein [3])?
The Km was 16 ± 1 µM.

What about the kcat (purified protein [3]) of the same protein?
Its kcat is 19 ± 1 s⁻¹.
